For data set [1], the target named is T1, TDP-43 construct (RRM1-2) (UniProt Q13148 Q13148:104-262). In words: BLI.
The target in data set [2] is T1, TDP-43 construct (RRM1-2). In words: BLI; 10 mM K phosphate pH 7.2, 150 mM KCl, 0.01% Tween20, 25 C. To be noted: label: 3'-biotin.
The target of data set [3] is T1, TDP-43 construct (RRM1-2). The description is as above. The method, then: (§1) The binding assays were performed in 10 mM potassium phosphate buffer (pH 7.2) with 150 mM KCl and 0.01% Tween20. Streptavidin-coated biosensors were loaded with 1 μg/ml RNA aptamer modified with biotin on the 3′end and exposed to increasing protein concentrations varying from 20 nM to 20 μM, according to the strength of the binding. Kd values were estimated by fitting the response intensity (shift in the wavelength upon binding) as a function of the protein concentration, at the steady state. The assay was repeated at least 3 times, each time in triplicate. The reported binding curves are examples of the output of one experiment.
The inventors verified whether Apt-14 preserves the ability to bind tightly to TDP-43. Bio-layer interferometry was used to determine the dissociation constant of the interaction between Apt-14 and the TDP-43 construct. This experiment was carried out with the same buffer and the same conditions employed for the experiment carried out with Apt-1.

The target of data set [4] is T1, TDP-43 construct (RRM1-2). In words: BLI; 10 mM K phosphate pH 7.2, 150 mM KCl, 0.01% Tween20, 25 C; about 90 nM in Example 7. To be noted: label: 3'-biotin (BLI). The method, then:
In this study, the inventors calculated the predicted interaction propensities between the RNA aptamers of Table 1 and TDP-43 and validated the predicted interaction propensities by comparing them with the experimentally measured Kd (dissociation constant) values. To this end, the Kd between each of Apt-1, Apt-2, Apt-3, Apt-11, Apt-12 or Apt-13 and the two RNA recognition motifs of TDP-43 (RRM1-2) was determined by means of biolayer interferometry, a label-free technology to study biomolecular interactions. Importantly, RRM1-2 represents the minimal region necessary for RNA-binding with high affinity (Lukavsky et al., 2013) purifiable as a monomer under near-to-physiological conditions and in suitable quantities (Zacco et al., 2018).
as §1

T1 sequence (Q13148 104-262, one chain of several): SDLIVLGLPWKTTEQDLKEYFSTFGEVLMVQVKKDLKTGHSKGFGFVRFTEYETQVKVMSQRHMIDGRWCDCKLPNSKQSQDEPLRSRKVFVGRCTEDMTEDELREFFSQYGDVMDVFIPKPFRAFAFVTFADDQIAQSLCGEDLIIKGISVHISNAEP

For GCUGGGGUGGGGCGGAUCGGUGUUG (ssRNA) [Apt-1 (25 nt)], the Kd in data set [1] was ~750 nM.
In the case of GUGGUCCCCG (ssRNA) [Apt-2], the affinity in data set [2], expressed as Kd, was 750 nM.
The molecule GGGGUGGGGC (ssRNA) [Apt-4] yielded a Kd in data set [2] of 1300 nM.
In data set [2], CGCUGUGGUC (ssRNA) [Apt-3] yielded a Kd of 650 nM.
With CGGTGTTGCT (ssDNA) [Apt-14 (DNA version of Apt-1)], the Kd in data set [3] is ~76 nM.
Consider CGAGGCCGGG (ssRNA) [Apt-5], for which the Kd in data set [2] is 1500 nM.
Still for that read-out and setting: next, GCGGGGCCCG (ssRNA) [Apt-6]: 1600 nM.
In the case of CGGUGUUGCU (ssRNA) [Apt-1], the Kd in data set [4] worked out at 100 nM.
